Measurements as given in patent publication US7129055.
Several values for one entry are separate records, joined by “and”; a condition that tells them apart may be missing. Equal values may be shown once.

Biological target: C-C Chemokine Receptor 5 (CC-CKR5) (human) (UniProt P51681)
Test: cell-based or functional assay

Row | Substance | sensitivity of 293T cells co-expressing CD4 and CC-CKR-5 to infection by pseudotyped luciferase reporter virus (orders of magnitude) | reduction of infection of HeLa cells expressing CD4 and CC-CKR-5 by macrophage-tropic virus; mixture of chemokines
1 | ADA Env (macrophage-tropic HIV-1 envelope glycoprotein) | 3 and 4 | –
2 | BaL Env (macrophage-tropic HIV-1 envelope glycoprotein) | 3 and 4 | –
3 | JRFL Env (macrophage-tropic HIV-1 envelope glycoprotein) | 3 and 4 | –
4 | MIP-1α (from UniProt P10147 23-92) (ligand) | – | 80% and 70%
5 | MIP-1β (from UniProt P13236 24-92) (ligand) | – | 70% and 80%
6 | RANTES (from UniProt P13501 24-91) (ligand) | – | 70% and 80%
